Experimental data as given in PMC6456224.

Legend:
[1] = test system: HMG-box Pf (HMG-box domain of HMGB1) (Plasmodium falciparum); test: MST; details: MST: 50 nM aptamer with probeFAM (4:1), PBS, room temperature, protein 0.1 nM-2 uM, stopped-flow: SELEX buffer (100 mM NaCl, 1.5 mM KCl, 5 mM MgCl2, 6 mM …)
[2] = target: HMG-box Hs (HMG-box domain of human HMGB1) (Homo sapiens) (UniProt P09429); test: MST; details: MST: 50 nM aptamer with probeFAM (4:1), PBS, room temperature, protein 0.1 nM-2 uM; stopped-flow: SELEX buffer (100 mM NaCl, 1.5 mM KCl, 5 mM MgCl2, 6 mM …)
Chain of UniProt P09429 (P09429 whole entry, the tested form may be a part): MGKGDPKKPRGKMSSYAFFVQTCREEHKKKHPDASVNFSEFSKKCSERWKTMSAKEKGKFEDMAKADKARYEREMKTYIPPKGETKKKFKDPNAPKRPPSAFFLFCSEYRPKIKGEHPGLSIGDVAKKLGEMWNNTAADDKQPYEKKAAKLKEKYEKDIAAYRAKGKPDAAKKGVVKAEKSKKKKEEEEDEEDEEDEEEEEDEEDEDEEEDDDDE

TAGGGAAGAGAAGGACATATGATGCCGACTACGTCAACCTGGGTCTGCTCGGGATTGCGGATGTTGACTAGTACATGACCACTTGA [PfE1]
Kd [1]: 81 nM

TAGGGAAGAGAAGGACATATGATAGATGCAAAGGACTGCTCAGGCTTGCGATGGCAGCTTCATTTGACTAGTACATGACCACTTGA [PfR2]
Kd [1]: 778 nM

TAGGGAAGAGAAGGACATATGATAGTTTACACCAAGGACTGCTTAGGATTGCGTTAGGGTATTTTGACTAGTACATGACCACTTGA [PfE3]
Kd [1]: 815 nM | Kd ([1]; separate S4 experiment): 740 nM | fold lower affinity than HMG-box Pf (fold lower affinity than HMG-box Pf) [2]: 10

TAGGGAAGAGAAGGACATATGATAGCCGTGGATTGCAAAGGGCTGCTGTGGCTTAGTTGAATGTTGACTAGTACATGACCACTTGA [PfR5]
Kd [1]: 560 nM

TAGGGAAGAGAAGGACATATGATGAGAAGGACTGCTTAGGCTTGCGATGTGAAATCTGTAATCTTGACTAGTACATGACCACTTGA [PfR1]
Kd [1]: 175 nM

TAGGGAAGAGAAGGACATATGATACCGACTACGTCAACTTGGGTCTGCTCGGGATTGCGGATGTTGACTAGTACATGACCACTTGA [PfE2]
Kd [1]: 55 nM

TAGGGAAGAGAAGGACATATGATCACTAGGTCTGCTTAGGATTGCGTAAGTGAAAGTCATTTATTGACTAGTACATGACCACTTGA [PfR3]
Kd [1]: 1930 nM

TAGGGAAGAGAAGGACATATGATACCGACTACGTCAACCTGGGTCTGCTCGGGATTGCGGATGTTGACTAGTACATGACCACTTGA [PfR4]
Kd [1]: 41 nM

TAGGGAAGAGAAGGACATATGATCGCGTGGGTTTGGCTCCGGGCCTGGCGGATGCACGTATAGTTGACTAGTACATGACCACTTGA [PfR6 (PfR6FAM)]
Kd [1]: 65 nM | Kd ([1]; separate S4 experiment): 64 nM
